According to the RNAGym collection of RNA variant scans (doi:10.1073/pnas.2313332121):
Variants at the floor of the assay were thinned out.

B1: TPR 5TU (parent)
chain: GGAUCUUCUCGAUCUAACAAAAAAGACAAAUCUGCCACAAAGCUUGAGAGCAUCUUCGGAUGCAGAGGCGGCAGCCUUCGGUGGCGCGAUAGCGCCAACGUUCUCAACUAUGACACGCAAAACGCGUGCUCCGUUGAAUGGAGUUUAUCAUG

Variants of: B1
Test: polymerase ribozyme fitness, log enrichment relative to wild type (log ratio); higher = more active; in vitro selection for triplet polymerase activity
Summary of the method: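 Input and output libraries were sequenced on Illumina after a single in vitro selection round, run in triplicate on PCR-built, transcribed mutant libraries of each subunit of a heterodimeric triplet polymerase ribozyme. Selection annealed libraries to a biotinylated primer, the partner subunit and triplets, incubated them frozen at −7 °C, then gel-excised extended constructs for streptavidin-bead capture and RT-PCR. Genotypes with ≥10 input reads and ≥1 read per output were kept. Fitness is the logarithm, taken in base 2, of genotype enrichment divided by wild-type enrichment, using inverse-variance-weighted replicate averages.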

Variant	polymerase ribozyme fitness (log ratio)
G50C G59C C95G	-3.67
G50U C87U G92A	0.244
G50A U145C	-0.761
C51A C96A	-1.26
G50U G92A	-2.93
G50A C69U G84U A98U A122G	≤ -4.2
G50C U77G C93G	≤ -4.2
G50A G59C U90G	≤ -4.2
G50U U56A G83A	-0.268
G50C A64U G100U U111C G136C	≤ -4.2
G50A C85G C93A C129G	≤ -4.2
G50U U104G G143U	-3.47
G50C C57G U77A G81A G86C C96A G143A	≤ -4.2
G50U G94A U102C C103U	-3.63
G50A C72U A98C C99A	≤ -4.2
G50U G94A A113G A147C	-3.89
G50A C54U C57A G84U C103G G124C G133U G141C	≤ -4.2
C51A C57G G68C A73C C76G G86U G100C A120G A122C U134A	≤ -4.2
G50U A52G	-0.0259
G50C C95U U146G	-3.64
G50C G59C G62A G68C C95U U148C	≤ -4.2
G50A G59A G133U	≤ -4.2
G50A G83C C93G A97C C132G A137G G140U	≤ -4.2
G50C U56A U78A G83A G94U C95A	≤ -4.2

Variant	polymerase ribozyme fitness (log ratio)
G50A U134A	-3.21
G50A G59A C96U A122U A142G A147U	-3.67
G50U U53A G58A A73G C79A C93A A107U C116G G136C	≤ -4.2
G50C C85U	-2.99
G50C C118A	-4.05
G50C C118U	-3.01
C51A G68U U82C C116U U146G	≤ -4.2
G50C G94A A107G U134C	≤ -4.2
G50A C57A C99A	-2.67
G50C G94A C129U U135G	≤ -4.2
G50A U82C	-0.783
G50U G86C A120C	-3.03
C51A G84A U144A	-2.52
C51A G58C	-2.22
G50C C54U G86A C108U	≤ -4.2
G50U U56A G94U A106G C116G C123U	-0.9
G50U U56A C114U	-2.18
G50C G68A A142U	≤ -4.2
G50C U78A G92A	≤ -4.2
G50C U101G	-2.64
G50A C51U U55A C76A C105U C108G	≤ -4.2
C51A A52U C63U C99G A106C A119G G126U	≤ -4.2
G50C C95G U101G A115U C118G A122C G126U	≤ -4.2
G50U G86A C93U C96U	-0.529

Variant	polymerase ribozyme fitness (log ratio)
G50C C51G A52U C76U G84U C105U C114U G133A	≤ -4.2
G50U G58U G59U C76A	≤ -4.2
G50U	0.257
G50C	-2.52
G50A C95U	-2.44
G50A C95G	-3.01
G50A U77A A106U A113G A121U C131U	≤ -4.2
G50C G92A C116U U151C	≤ -4.2
G50C C63G C96A C118U A119C	-0.626
C51A G86A C118A	-3.43
G50A C54U U55A A73G	≤ -4.2
G50A C76U C96A A121G	-1.1
G50A G58C C99A	≤ -4.2
G50U G81A U102G	-2.74
G50U A52C A64C G92C	≤ -4.2
G50U U55A A66G C95U C103A A138U	≤ -4.2
G50C C51U C87U G152U	≤ -4.2
G50A G58C	-1.06
G50U C87U C96A	-1.48
G50C C93G C99U	≤ -4.2
G50A A91U G100U C125A	≤ -4.2
G50A C87U A97U	-3.34
G50C C75U C85G	≤ -4.2
G50A G68A C96G C99U G136A	≤ -4.2

Variant	polymerase ribozyme fitness (log ratio)
G50U C54G A150U	-2.15
G50C A66C A91U A106C A137C U148A	≤ -4.2
G50U A97U A147U	0.621
G50A G84A U101C G117C U146G	-0.884
G50U G86A	-2.57
G50U G86U	-1.71
G50C G67A U90G A142G	≤ -4.2
C51A A52G	-0.455
G50A C51U U55A G84A C87A C93A C108U G140C U146C	≤ -4.2
G50U C63U C85A A110G	-4.19
G50U U55A C96U	-0.864
G50C A52C C54U G88A C96G	≤ -4.2
G50C C103A C149U	≤ -4.2
C51A C85U A89G U146A	-3.11
G50A C51U G74C U82C G140A U146G	≤ -4.2
G50A G58C C76U C85G G141U	-4.1
G50C G59A U145C	-3.51
G50C G71U C85A G124U	≤ -4.2
G50A A91U	≤ -4.2
G50A G84A C95G U146C	-0.861
C51A C57A C87U A98G U146G	-3.12
G50A G83A A97G	-0.838
G50C A73G C87A	≤ -4.2
G50C U55G C63A C76G A91G C125G U145C	≤ -4.2

Variant	polymerase ribozyme fitness (log ratio)
G50A U77G G81A A91U A97G A122U	≤ -4.2
G50C C93G U104C	≤ -4.2
G50U C99A	-1.59
G50A G65A C85U	-3.49
G50U C57U G92C	-0.983
G50U C87U G152U	-4.17
G50A G86A C131U	-1.93
G50C C96G U144C	≤ -4.2
C51A C63U C85A G126A C129A G140A	≤ -4.2
G50U C95U C118A G140A	≤ -4.2
G50C A52C G58C	≤ -4.2
G50A C51A C114U U134C G136A U151G	≤ -4.2
G50A C54U C85U C93U G94U G117A	-3.95
G50C G83U C93A G100U G124C G128U C132G U145G	≤ -4.2
G50A A115G	-2.49
G50C C95U	-3.47
G50U A60C G84A	-2.47
G50A G84U G141U	-3.31
G50U C51U C72U C93G U101C C108A G112U A113U A121G	≤ -4.2
G50A U55A C95A	-1.86
G50U C85A	-1.4
G50U G65C A66C C96G	≤ -4.2
C51A C96A A115G A137U	≤ -4.2
G50U C63U C79G C131G A137C	≤ -4.2

Variant	polymerase ribozyme fitness (log ratio)
G50U G81A C95U	0.505
G50U G67U C85G C103U G140A A147G	≤ -4.2
G50U A64G C103G C125A A142G	≤ -4.2
G50A C57A A66C G81U G86C A97C	≤ -4.2
G50C U134C	-2.51
G50A G68C U77C U82G G92C	≤ -4.2
G50A C103U	-1.49
G50C C63U U82C A115U U146A	-1.83
G50C C129U	-3.94
G50A U90C C96G A115U	≤ -4.2
G50C U61A A110U U145G	≤ -4.2
G50C C76A G83U C103A C132G U145G	≤ -4.2
G50U C51U G58U C108G C123G	≤ -4.2
G50C A52C	-2.71
G50U A66C C76U U82G A89G A138U	≤ -4.2
G50A G70A	-3.76
G50A C57A C76G C93G	≤ -4.2
G50C C76U	-1.88
G50U C95A U109C	≤ -4.2
G50C U56C C87G A89C G100C A120G C125U	≤ -4.2
G50C A64U C93G U111G C116U G143U	≤ -4.2
G50C U102G	-3.32
G50C U61A G62U A142C	-2.79
G50U U55A G71U	-3.35

Variant	polymerase ribozyme fitness (log ratio)
G50U A97U U102A G124A	-2.31
G50C A91G	-4
G50C U55A	-3.29
G50A G141C	-1.77
C51A U55G A60G C93U	-2.7
C51A G74A C85A C114A	≤ -4.2
G50U A106G	0.264
G50C C69A C79A U82G U90G A107G A120G C129G U139G C149G	≤ -4.2
C51A C57U U146G	-1.67
G50A U78A G83A G100A A107C	≤ -4.2
C51A G74A	≤ -4.2
G50A A91G C99U C103G	≤ -4.2
G50U C125G	-0.442
G50A G62A G117A	-1.7
G50C C87G C114A A115G	≤ -4.2
G50A G86A C132U G143C C149G	≤ -4.2
G50C G94A C116U	-3.3
G50A A107U	-4.13
C51A A60G C95G U146C U151G	≤ -4.2
G50U U139C	-3.65
G50C A142U	-3.9
C51A C87A G133U C149G	≤ -4.2
G50C A64G A89C G94C U101G A106U G133U	-4.12
